# Where no end group is shown, it is not given here.
# T1: pol30-Pol32E9 (yeast, UniProt P15873 1-258, IDCL DIDADFLKIEEL to DNDVDSLKIIEL)
# T1 construct: PCNA (POL30), yeast; source: yeast two-hybrid fusion (pAD-GAL4, strain YRG2)
# T1 sequence: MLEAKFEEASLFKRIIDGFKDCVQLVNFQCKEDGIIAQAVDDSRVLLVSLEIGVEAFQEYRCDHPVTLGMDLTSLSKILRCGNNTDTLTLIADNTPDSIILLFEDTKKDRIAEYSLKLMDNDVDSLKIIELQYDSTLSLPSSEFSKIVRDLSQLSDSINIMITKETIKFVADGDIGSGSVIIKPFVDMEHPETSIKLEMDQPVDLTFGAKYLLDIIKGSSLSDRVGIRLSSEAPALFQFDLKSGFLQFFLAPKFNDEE
# T2: pol30-Pol32E5 (yeast, UniProt P15873 1-258, IDCL DIDADFLKIEEL to DADNDFLKISEL)
# T2 construct: PCNA (POL30), yeast; source: yeast two-hybrid fusion (pAD-GAL4, strain YRG2)
# T2 sequence: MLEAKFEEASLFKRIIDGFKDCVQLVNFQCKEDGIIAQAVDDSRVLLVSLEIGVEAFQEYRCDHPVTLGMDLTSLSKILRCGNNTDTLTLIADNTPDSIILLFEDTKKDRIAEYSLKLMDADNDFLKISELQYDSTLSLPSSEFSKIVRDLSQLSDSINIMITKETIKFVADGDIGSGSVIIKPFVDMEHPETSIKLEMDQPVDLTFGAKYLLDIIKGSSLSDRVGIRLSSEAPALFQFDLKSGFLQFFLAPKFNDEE
# T3: pol30-Rad30E2 (yeast, UniProt P15873 1-258, IDCL DIDADFLKIEEL to DDDWDFLKILEL)
# T3 construct: PCNA (POL30), yeast; source: yeast two-hybrid fusion (pAD-GAL4, strain YRG2)
# T3 sequence: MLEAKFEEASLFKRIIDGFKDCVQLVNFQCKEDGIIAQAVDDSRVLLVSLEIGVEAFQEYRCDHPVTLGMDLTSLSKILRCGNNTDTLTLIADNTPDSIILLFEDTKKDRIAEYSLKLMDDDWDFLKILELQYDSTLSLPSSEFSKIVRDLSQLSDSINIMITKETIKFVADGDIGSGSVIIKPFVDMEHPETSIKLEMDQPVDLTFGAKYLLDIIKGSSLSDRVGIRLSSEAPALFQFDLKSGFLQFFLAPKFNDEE
# T4: pol30-79 (yeast, UniProt P15873 1-258, IDCL DIDADFLKIEEL to DIDADFAKAEEL)
# T4 construct: PCNA (POL30), yeast; the changes are then L126A and I128A; also called PCNA79; source: yeast two-hybrid fusion (pAD-GAL4, strain YRG2)
# T4 sequence: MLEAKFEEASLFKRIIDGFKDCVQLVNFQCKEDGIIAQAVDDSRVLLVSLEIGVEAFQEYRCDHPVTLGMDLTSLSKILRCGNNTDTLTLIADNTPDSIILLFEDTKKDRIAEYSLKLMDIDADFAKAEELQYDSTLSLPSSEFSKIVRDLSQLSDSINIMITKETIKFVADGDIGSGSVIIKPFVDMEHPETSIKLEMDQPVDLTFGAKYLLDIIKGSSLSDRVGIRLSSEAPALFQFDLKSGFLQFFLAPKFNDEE
# T5: pol30-Msh6E2 (yeast, UniProt P15873 1-258, IDCL DIDADFLKIEEL to DYDRDMLKISEL)
# T5 construct: PCNA (POL30), yeast; source: yeast two-hybrid fusion (pAD-GAL4, strain YRG2)
# T5 sequence: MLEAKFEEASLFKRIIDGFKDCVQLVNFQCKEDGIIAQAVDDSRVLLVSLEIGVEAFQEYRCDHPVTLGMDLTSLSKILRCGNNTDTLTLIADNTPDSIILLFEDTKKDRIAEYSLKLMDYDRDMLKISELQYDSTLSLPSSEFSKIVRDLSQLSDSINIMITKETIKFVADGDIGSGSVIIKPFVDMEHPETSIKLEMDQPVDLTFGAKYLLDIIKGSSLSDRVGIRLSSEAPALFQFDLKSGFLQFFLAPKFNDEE
# T6: pol30-Msh6E6 (yeast, UniProt P15873 1-258, IDCL DIDADFLKIEEL to DYDKDLLKIIEL)
# T6 construct: PCNA (POL30), yeast; source: yeast two-hybrid fusion (pAD-GAL4, strain YRG2)
# T6 sequence: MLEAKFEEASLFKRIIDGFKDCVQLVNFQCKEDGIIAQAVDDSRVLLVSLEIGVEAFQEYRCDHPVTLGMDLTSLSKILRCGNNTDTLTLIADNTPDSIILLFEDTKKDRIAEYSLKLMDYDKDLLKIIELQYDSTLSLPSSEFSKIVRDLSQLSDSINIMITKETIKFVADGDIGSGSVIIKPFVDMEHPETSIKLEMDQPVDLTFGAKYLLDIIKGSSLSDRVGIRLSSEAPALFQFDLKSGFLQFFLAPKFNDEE
# T7: pol30-Ung1E3 (yeast, UniProt P15873 1-258, IDCL DIDADFLKIEEL to DFDYDELKIEEL)
# T7 construct: PCNA (POL30), yeast; source: yeast two-hybrid fusion (pAD-GAL4, strain YRG2)
# T7 sequence: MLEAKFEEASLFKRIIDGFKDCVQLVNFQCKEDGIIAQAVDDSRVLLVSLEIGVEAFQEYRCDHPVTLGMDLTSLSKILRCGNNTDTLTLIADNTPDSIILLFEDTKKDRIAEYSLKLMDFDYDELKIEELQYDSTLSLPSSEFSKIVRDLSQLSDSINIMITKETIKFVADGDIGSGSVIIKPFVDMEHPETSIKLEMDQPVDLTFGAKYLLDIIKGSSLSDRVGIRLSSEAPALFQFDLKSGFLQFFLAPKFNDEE
# T8: pol30-Rad30E9, 6×Histidine-tagged (yeast, UniProt P15873 1-258, IDCL DIDADFLKIEEL to DNDWDFLKIDEL)
# T8 construct: PCNA (POL30), yeast, in pET28; also called Pol30-Rad30E9p; source: E. coli BL21, in cleared crude lysate (ELISA); purified by Ni-NTA (SPR)
# T8 sequence: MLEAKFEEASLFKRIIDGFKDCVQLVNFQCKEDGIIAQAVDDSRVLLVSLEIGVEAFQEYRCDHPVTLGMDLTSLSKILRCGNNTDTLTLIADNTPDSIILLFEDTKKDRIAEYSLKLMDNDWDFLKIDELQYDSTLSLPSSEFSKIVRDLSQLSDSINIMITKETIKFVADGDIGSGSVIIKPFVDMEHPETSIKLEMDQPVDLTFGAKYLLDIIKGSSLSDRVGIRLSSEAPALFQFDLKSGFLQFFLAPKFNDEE
# T9: pol30-Pol32E9, 6×Histidine-tagged (yeast, UniProt P15873 1-258, IDCL DIDADFLKIEEL to DNDVDSLKIIEL)
# T9 construct: PCNA (POL30), yeast, in pET28; source: E. coli BL21, in cleared crude lysate (ELISA); purified by Ni-NTA (SPR)
# T9 sequence: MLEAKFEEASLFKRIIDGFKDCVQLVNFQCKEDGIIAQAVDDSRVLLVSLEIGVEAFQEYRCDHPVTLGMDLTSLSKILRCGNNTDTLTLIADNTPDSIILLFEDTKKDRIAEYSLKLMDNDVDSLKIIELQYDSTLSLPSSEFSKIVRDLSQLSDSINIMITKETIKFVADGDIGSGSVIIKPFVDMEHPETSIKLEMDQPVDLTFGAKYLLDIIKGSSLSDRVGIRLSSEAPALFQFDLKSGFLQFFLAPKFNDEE
# Columns and labels:
# pol30-Pol32E9 = biological target: T1, pol30-Pol32E9; experiment: two-hybrid; quantitative Y2H: generation time of the YRG2 strains in liquid SC-Leu-Trp-His, given relative to cells expressing WT PCNA; average of at least 3 experiments; conditions: partners not purified
# pol30-Pol32E5 = biological target: T2, pol30-Pol32E5; experiment: as above; conditions: partners not purified
# pol30-Rad30E2 = biological target: T3, pol30-Rad30E2; experiment: as above; conditions: partners not purified
# pol30-79 = biological target: T4, pol30-79; experiment: as above; conditions: partners not purified
# pol30-Msh6E2 = biological target: T5, pol30-Msh6E2; experiment: as above; conditions: partners not purified
# pol30-Msh6E6 = biological target: T6, pol30-Msh6E6; experiment: as above; conditions: partners not purified
# pol30-Ung1E3 = biological target: T7, pol30-Ung1E3; experiment: as above; conditions: partners not purified
# [1] = biological target: T8, pol30-Rad30E9, 6×Histidine-tagged; experiment: SPR; ProteOn XPR36; WT or mutant PCNA (0.4 to 5.2 fmol) immobilised on a GLM chip by carbodiimide-activated succinimide coupling; PIP peptides 5–5,000 nM at 30 µl/min; peptide buffer 150 mM NaCl, 1 mM EDTA, 0.01% Tween-80, 30 mM Hepes, pH 7.5; conditions: both partners purified
# [2] = biological target: T9, pol30-Pol32E9, 6×Histidine-tagged; experiment: as above; conditions: both partners purified
binder,measurement,setting,value
"Pol32 (natural protein, yeast, UniProt P47110 1-350, looked up, Pol32 (DNA polymerase subunit), yeast; also called pBD-Pol32; source: yeast two-hybrid fusion (pBD-GAL4, strain YRG2)) MDQKASYFINEKLFTEVKPVLFTDLIHHLKIGPSMAKKLMFDYYKQTTNAKYNCVVICCYKDQTIKIIHDLSNIPQQDSIIDCFIYAFNPMDSFIPYYDIIDQKDCLTIKNSYELKVSESSKIIERTKTLEEKSKPLVRPTARSKTTPEETTGRKSKSKDMGLRSTALLAKMKKDRDDKETSRQNELRKRKEENLQKINKQNPEREAQMKELNNLFVEDDLDTEEVNGGSKPNSPKETDSNDKDKNNDDLEDLLETTAEDSLMDVPKIQQTKPSETEHSKEPKSEEEPSSFIDEDGYIVTKRPATSTPPRKPSPVVKRALSSSKKQETPSSNKRLKKQGTLESFFKRKAK",fold change in affinity relative to WT PCNA (Y2H generation time),pol30-Pol32E9,1.3 fold
same,fold change in affinity relative to WT PCNA (Y2H generation time),pol30-Pol32E5,1.5 fold
same,fold change in affinity relative to WT PCNA (Y2H generation time),pol30-Rad30E2,0.4 fold
same,fold change in affinity relative to WT PCNA (Y2H generation time),pol30-79,0.3 fold
"Msh6 (natural protein, yeast, UniProt Q03834 1-1242, looked up, Msh6 (mismatch repair), yeast; also called pBD-Msh6; source: yeast two-hybrid fusion (pBD-GAL4, strain YRG2)) MAPATPKTSKTAHFENGSTSSQKKMKQSSLLSFFSKQVPSGTPSKKVQKPTPATLENTATDKITKNPQGGKTGKLFVDVDEDNDLTIAEETVSTVRSDIMHSQEPQSDTMLNSNTTEPKSTTTDEDLSSSQSRRNHKRRVNYAESDDDDSDTTFTAKRKKGKVVDSESDEDEYLPDKNDGDEDDDIADDKEDIKGELAEDSGDDDDLISLAETTSKKKFSYNTSHSSSPFTRNISRDNSKKKSRPNQAPSRSYNPSHSQPSATSKSSKFNKQNEERYQWLVDERDAQRRPKSDPEYDPRTLYIPSSAWNKFTPFEKQYWEIKSKMWDCIVFFKKGKFFELYEKDALLANALFDLKIAGGGRANMQLAGIPEMSFEYWAAQFIQMGYKVAKVDQRESMLAKEMREGSKGIVKRELQCILTSGTLTDGDMLHSDLATFCLAIREEPGNFYNETQLDSSTIVQKLNTKIFGAAFIDTATGELQMLEFEDDSECTKLDTLMSQVRPMEVVMERNNLSTLANKIVKFNSAPNAIFNEVKAGEEFYDCDKTYAEIISSEYFSTEEDWPEVLKSYYDTGKKVGFSAFGGLLYYLKWLKLDKNLISMKNIKEYDFVKSQHSMVLDGITLQNLEIFSNSFDGSDKGTLFKLFNRAITPMGKRMMKKWLMHPLLRKNDIESRLDSVDSLLQDITLREQLEITFSKLPDLERMLARIHSRTIKVKDFEKVITAFETIIELQDSLKNNDLKGDVSKYISSFPEGLVEAVKSWTNAFERQKAINENIIVPQRGFDIEFDKSMDRIQELEDELMEILMTYRKQFKCSNIQYKDSGKEIYTIEIPISATKNVPSNWVQMAANKTYKRYYSDEVRALARSMAEAKEIHKTLEEDLKNRLCQKFDAHYNTIWMPTIQAISNIDCLLAITRTSEYLGAPSCRPTIVDEVDSKTNTQLNGFLKFKSLRHPCFNLGATTAKDFIPNDIELGKEQPRLGLLTGANAAGKSTILRMACIAVIMAQMGCYVPCESAVLTPIDRIMTRLGANDNIMQGKSTFFVELAETKKILDMATNRSLLVVDELGRGGSSSDGFAIAESVLHHVATHIQSLGFFATHYGTLASSFKHHPQVRPLKMSILVDEATRNVTFLYKMLEGQSEGSFGMHVASMCGISKEIIDNAQIAADNLEHTSRLVKERDLAANNLNGEVVSVPGGLQSDFVRIAYGDGLKNTKLGSGEGVLNYDWNIKRNVLKSLFSIIDDLQS",fold change in affinity relative to WT PCNA (Y2H generation time),pol30-Msh6E2,1.4 fold
same,fold change in affinity relative to WT PCNA (Y2H generation time),pol30-Msh6E6,1.4 fold
same,fold change in affinity relative to WT PCNA (Y2H generation time),pol30-79,0.4 fold
"Ung1 (natural protein, yeast, UniProt P12887 1-359, looked up, Ung1 (base excision repair), yeast; also called pBD-Ung1; source: yeast two-hybrid fusion (pBD-GAL4, strain YRG2)) MWCMRRLPTNSVMTVARKRKQTTIEDFFGTKKSTNEAPNKKGKSGATFMTITNGAAIKTETKAVAKEANTDKYPANSNAKDVYSKNLSSNLRTLLSLELETIDDSWFPHLMDEFKKPYFVKLKQFVTKEQADHTVFPPAKDIYSWTRLTPFNKVKVVIIGQDPYHNFNQAHGLAFSVKPPTPAPPSLKNIYKELKQEYPDFVEDNKVGDLTHWASQGVLLLNTSLTVRAHNANSHSKHGWETFTKRVVQLLIQDREADGKSLVFLLWGNNAIKLVESLLGSTSVGSGSKYPNIMVMKSVHPSPLSASRGFFGTNHFKMINDWLYNTRGEKMIDWSVVPGTSLREVQEANARLESESKDP",fold change in affinity relative to WT PCNA (Y2H generation time),pol30-Ung1E3,1.3 fold
same,fold change in affinity relative to WT PCNA (Y2H generation time),pol30-79,0.3 fold
"QKKQVTSSKNILSFFTRKK (also: biotinylated, site not given here) [PIP peptide derived from Rad30]",fold increase in binding affinity relative to WT PCNA (SPR),[1],8.5 fold
"QGTLESFFKRKAK (also: biotinylated, site not given here) [PIP peptide derived from Pol32]",fold increase in binding affinity relative to WT PCNA (SPR),[2],2 fold

# Reference: article PMC2953525, “Subtle Alterations in PCNA-Partner Interactions Severely Impair DNA Replication and Repair” (PLoS Biology, 2010)
